Measured values reported in the supplement of paper PMC10724198.

Assays:
Saccharomyces cerevisiae [1] = test: protein stability index of tFT-peptide fusion in wild type (PSI (0-1 scale)); higher = more stable (slower turnover); details: genetic background: wild type
Method: (§1)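 MPS profiling in S. cerevisiae of two library types built from selected 12-aa C-degron peptides (IN1, IN2, LN1, LN3, VN2, R1-R5, W1-W3, Atg1 and Rpa12 C-termini): saturation mutagenesis libraries and C-terminal +1 capping libraries (13 aa). Each peptide is fused to the C-terminus of a sfGFP-mCherry timer, after a GGGS linker. Cells are FACS-sorted into 8 mCherry/sfGFP bins and sequenced. PSI runs from 0 (unstable) to 1 (stable), measured once in wild type and in the das1Δ or doa10Δ background.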

Saccharomyces cerevisiae [2] = test: protein stability index of tFT-peptide fusion in deletion strain of DAS1 (PSI (0-1 scale)); higher = more stable (slower turnover)
Method: as §1
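Throughout, for protein stability index of tFT-peptide fusion in deletion strain of DAS1: PSI is a weighted mean of each variant's read distribution over the sorted stability bins, computed only for variants having over 10 reads in total.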
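Throughout, for protein stability index of tFT-peptide fusion in wild type: PSI derived as read-weighted mean over the 8 sorting bins, only variants exceeding 10 total reads kept, mCherry placed adjacent to the peptide and sfGFP distal.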

Row | Sequence | protein stability index (Saccharomyces cerevisiae [1]) | protein stability index (Saccharomyces cerevisiae [2])
1 | PSLAASFWRVYG | 0.174 | 0.691
2 | PSLAASHWRVVG | 0.158 | 0.692
3 | PSLAASNWRVVG | 0.22 | 0.692
4 | PSLAASQWRVVG | 0.184 | 0.668
5 | PSLEASFWRVVG | 0.121 | 0.673
6 | PSLKASFWRVVG | 0.147 | 0.678
7 | PSLMASFWRVVG | 0.131 | 0.707
8 | PSLWASFWRVVG | 0.103 | 0.697
9 | PWLAASFWRVVG | 0.0915 | 0.717
10 | QRWRVGLWRGAS | 0.345 | 0.683
11 | RKHKKGQKQKIN | 0.121 | 0.574
12 | RLAQPLPVQFLN | 0.0466 | 0.566
13 | RLFQPLPVQFLN | 0.034 | 0.658
14 | RLIGPLPVQFLN | 0.0842 | 0.598
15 | RLIQCLPVQFLN | 0.0457 | 0.571
16 | RLIQELPVQFLN | 0.061 | 0.616
17 | RLIQLLPVQFLN | 0.0564 | 0.635
18 | RLIQPEPVQFLN | 0.215 | 0.61
19 | RLIQPLNVQFLN | 0.0919 | 0.575
20 | RLIQPLPGQFLN | 0.282 | 0.612

Row | Sequence | protein stability index (Saccharomyces cerevisiae [1]) | protein stability index (Saccharomyces cerevisiae [2])
21 | RLIQPLPVMFLN | 0.0639 | 0.564
22 | RLIQPLPVQELN | 0.525 | 0.703
23 | RLIQPLPVQFIN | 0.0372 | 0.583
24 | RLIQPLPVQFLNF | 0.462 | 0.659
25 | RLIQPLPVQFPN | 0.622 | 0.605
26 | RLIQPLPVQMLN | 0.0702 | 0.606
27 | RLIQPLPVQTLN | 0.163 | 0.68
28 | RLIQPLPVQWLN | 0.0664 | 0.641
29 | RLIQPLPVYFLN | 0.0711 | 0.729
30 | RLMQPLPVQFLN | 0.1 | 0.572
31 | RLRQPLPVQFLN | 0.0588 | 0.593
32 | RLTQPLPVQFLN | 0.0562 | 0.857
33 | RSIQPLPVQFLN | 0.0915 | 0.643
34 | RSLAASFWRVVG | 0.117 | 0.689
35 | TKILRQKMNHQN | 0.148 | 0.67
36 | TVVYLSCVACIN | 0.0176 | 0.0307
37 | VDKRNHLIKLLN | 0.105 | 0.609
38 | VKGAVGGWRLVG | 0.149 | 0.691
39 | VQGAVGGWRLVG | 0.14 | 0.708
40 | VRAAVGGWRLVG | 0.14 | 0.681

Row | Sequence | protein stability index (Saccharomyces cerevisiae [1]) | protein stability index (Saccharomyces cerevisiae [2])
41 | VREAVGGWRLVG | 0.143 | 0.676
42 | VRGAIGGWRLVG | 0.157 | 0.684
43 | VRGAVGCWRLVG | 0.162 | 0.69
44 | VRGAVGGDRLVG | 0.609 | 0.68
45 | VRGAVGGNRLVG | 0.681 | 0.67
46 | VRGAVGGPRLVG | 0.661 | 0.669
47 | VRGAVGGWHLVG | 0.286 | 0.671
48 | VRGAVGGWRDVG | 0.606 | 0.629
49 | VRGAVGGWRKVG | 0.133 | 0.68
50 | VRGAVGGWRLKG | 0.607 | 0.673
51 | VRGAVGGWRLVF | 0.564 | 0.677
52 | VRGAVGGWRLVGK | 0.651 | 0.667
53 | VRGAVGGWRLVGP | 0.664 | 0.671
54 | VRGAVGGWRLVGV | 0.649 | 0.659
55 | VRGAVGGWRLVV | 0.16 | 0.675
56 | VRGAVGGWRMVG | 0.155 | 0.685
57 | VRGAVGGWRTVG | 0.157 | 0.674
58 | VRGAVGPWRLVG | 0.138 | 0.687
59 | VRGAVGRWRLVG | 0.159 | 0.669
